# Test results published in patent US20090023158A1.
substance,measurement,setting,value
"gamma secretase (endogenous, HEK cells)",AICD production and signaling activity,C99GVP-G25S,"little difference in their respective AICD production (FIG. 9A, lower panels) and signaling activity (FIG. 9D)"
same,secreted Aβ,C99GVP-G25S,"the other two mutations, G25S and N27S, showed no obvious effect on secreted Aβ"
same,AICD production and signaling activity,C99GVP-K28S,"little difference in their respective AICD production (FIG. 9A, lower panels) and signaling activity (FIG. 9D)"
same,"Aβ40 (secreted, ELISA)",C99GVP-K28S,the K28S substitution resulted in an even more substantial (˜90%) decrease in both measurements
same,total Aβ (secreted),C99GVP-K28S,the K28S substitution resulted in an even more substantial (˜90%) decrease in both measurements
same,AICD production and signaling activity,C99GVP-N27S,"little difference in their respective AICD production (FIG. 9A, lower panels) and signaling activity (FIG. 9D)"
same,secreted Aβ,C99GVP-N27S,"the other two mutations, G25S and N27S, showed no obvious effect on secreted Aβ"
same,AICD production and signaling activity,C99GVP-S26L,"little difference in their respective AICD production (FIG. 9A, lower panels) and signaling activity (FIG. 9D)"
same,"Aβ40 (secreted, ELISA)",C99GVP-S26L,a 52.7±2.3% drop of Aβ40
same,total Aβ (secreted),C99GVP-S26L,The S26L mutation led to a 65.7±8.5% reduction in total Aβ
same,secreted Aβ,C99GVP-SLSS,This mutation led to a marked reduction (˜97%) in secreted Aβ
same,Aβ secretion,C99GVP-SREBP1-gsnk,also maintained normal Aβ secretion
